Paper PMC3508667 (Biochemistry, 2012)

B1: (Phe94)-scFv (scFv, V domains shown)
VH: DIQLQESGPSLVKPSQTLSLTCSVTGDSITSDYWSWIRKFPGNRLEYMGYVSYSGSTYYNPSLKSRISITRDTSKNQYYLDLNSVTTEDTATYYCANWDGDYWGQGTLVTVSA
VL: DIVLTQSPATLSVTPGNSVSLSCRASQSIGNNLHWYQQKSHESPRLLIKYASQSISGIPSRFSGSGSGTDFTLSINSVETEDFGMYFCQQSNSFPYTFGGGTKLEIT
B2: ^5FW(Phe94)-scFv (scFv, V domains shown)
VH: DIQLQESGPSLVKPSQTLSLTCSVTGDSITSDYWSWIRKFPGNRLEYMGYVSYSGSTYYNPSLKSRISITRDTSKNQYYLDLNSVTTEDTATYYCANWDGDYWGQGTLVTVSA
VL: DIVLTQSPATLSVTPGNSVSLSCRASQSIGNNLHWYQQKSHESPRLLIKYASQSISGIPSRFSGSGSGTDFTLSINSVETEDFGMYFCQQSNSFPYTFGGGTKLEIT
B3: (Phe34)-scFv (scFv, V domains shown)
VH: DIQLQESGPSLVKPSQTLSLTCSVTGDSITSDYFSWIRKFPGNRLEYMGYVSYSGSTYYNPSLKSRISITRDTSKNQYYLDLNSVTTEDTATYYCANWDGDYWGQGTLVTVSA
VL: DIVLTQSPATLSVTPGNSVSLSCRASQSIGNNLHWYQQKSHESPRLLIKYASQSISGIPSRFSGSGSGTDFTLSINSVETEDFGMYFCQQSNSWPYTFGGGTKLEIT
B4: ^5FW(Phe34)-scFv (scFv, V domains shown)
VH: DIQLQESGPSLVKPSQTLSLTCSVTGDSITSDYFSWIRKFPGNRLEYMGYVSYSGSTYYNPSLKSRISITRDTSKNQYYLDLNSVTTEDTATYYCANWDGDYWGQGTLVTVSA
VL: DIVLTQSPATLSVTPGNSVSLSCRASQSIGNNLHWYQQKSHESPRLLIKYASQSISGIPSRFSGSGSGTDFTLSINSVETEDFGMYFCQQSNSWPYTFGGGTKLEIT
B5: (Phe36)-scFv (scFv, V domains shown)
VH: DIQLQESGPSLVKPSQTLSLTCSVTGDSITSDYWSFIRKFPGNRLEYMGYVSYSGSTYYNPSLKSRISITRDTSKNQYYLDLNSVTTEDTATYYCANWDGDYWGQGTLVTVSA
VL: DIVLTQSPATLSVTPGNSVSLSCRASQSIGNNLHWYQQKSHESPRLLIKYASQSISGIPSRFSGSGSGTDFTLSINSVETEDFGMYFCQQSNSWPYTFGGGTKLEIT
B6: ^5FW(Phe36)-scFv (scFv, V domains shown)
VH: DIQLQESGPSLVKPSQTLSLTCSVTGDSITSDYWSFIRKFPGNRLEYMGYVSYSGSTYYNPSLKSRISITRDTSKNQYYLDLNSVTTEDTATYYCANWDGDYWGQGTLVTVSA
VL: DIVLTQSPATLSVTPGNSVSLSCRASQSIGNNLHWYQQKSHESPRLLIKYASQSISGIPSRFSGSGSGTDFTLSINSVETEDFGMYFCQQSNSWPYTFGGGTKLEIT

Biological target: hen egg white lysozyme (Gallus gallus (hen egg white), UniProt P00698)
Sequence (P00698 19-147): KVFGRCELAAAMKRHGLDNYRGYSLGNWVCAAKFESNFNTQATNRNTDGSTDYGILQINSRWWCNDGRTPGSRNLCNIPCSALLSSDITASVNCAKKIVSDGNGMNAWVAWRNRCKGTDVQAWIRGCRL
Assay: SPR

Molecule	Kd [nM]
B1	0.272
B2	1.99
B3	0.266
B4	1.22
B5	0.559
B6	4.22

Biological target: hen egg white lysozyme (hen) (UniProt P00698)
Sequence (P00698 19-147): as above
Assay: SPR

Molecule	Kd [nM]
^5FW-scFv (HyHEL10 scFv, all Trp residues substituted with 5-fluorotryptophan)	4.03
